Laboratory results: patent US20120308566A1

Columns and labels:
[1] = molecular target: huIL-17RA-FLAG-polyHis (human) (UniProt Q96F46); assay: multiplexed binning, huIgG row/col L (IL-17RA on AMH19/AML19 bead)
[2] = molecular target: huIL-17RA-FLAG-polyHis (human) (UniProt Q96F46); assay: multiplexed binning, huIgG row/col K (IL-17RA on AMH14/AML14 bead)
[3] = molecular target: huIL-17RA-FLAG-polyHis (human) (UniProt Q96F46); assay: multiplexed binning, huIgG row/col I (IL-17RA on AMH22/AML22 bead)

huIgG (antibody)
normalized MFI [1]: -36 | normalized MFI [2]: -235 | normalized MFI [3]: -72
